Assays:
[1] = system: PIP4K2A (WT) (Homo sapiens); assay: EMSA; settings: EMSA 60 min 16 C, 5 ug yeast tRNA, 40 U RNase inhibitor; fluorescent: 500 mM NaCl, 10 mM Tris pH 7.5, 10% glycerol; radioactive: 30 mM KCl, 1 mM MgCl2, 40 mM …
[2] = system: PIP4K2A G131L Y138F (kinase dead) (Homo sapiens); assay: EMSA; settings: EMSA 60 min 16 C, 5 ug yeast tRNA, 40 U RNase inhibitor; fluorescent: 500 mM NaCl, 10 mM Tris pH 7.5, 10% glycerol; radioactive: 30 mM KCl, 1 mM MgCl2, 40 mM …

Substance	Kd [1] [nM]	Kd [2] [nM]
RAD51-short (5' proximal 35 bases of RAD51 3'UTR)	500	850
RAD51 3'UTR	750	

Source: PMC8194828
